Measurements as given in patent CN106902750A.

Legend:
[1] = target: Myc-GST融合蛋白(Myc标签与谷胱甘肽融合的蛋白); test: indirect ELISA, Myc-GST coated at 5 μg/mL, HRP anti-His secondary antibody; heat test at 90℃ for 30 min
[2] = target: Myc-GST融合蛋白(Myc标签与谷胱甘肽融合的蛋白); test: indirect ELISA, Myc-GST coated at 5 μg/mL, HRP anti-His secondary antibody; heat test at 70℃ for 30 min
[3] = target: Myc-GST融合蛋白(Myc标签与谷胱甘肽融合的蛋白); test: indirect ELISA, Myc-GST coated at 5 μg/mL, HRP anti-His secondary antibody; heat test at 80℃ for 30 min

OD450 [1]: 1.2 OD450 | OD450 [2]: 1.5 OD450 | OD450 [3]: 1.4 OD450
B1: 抗c-Myc标签单域重链抗体 (VHH, not shown: small tags and cut ends)
VHH: QLQLVESGGGLVQPGESLTLTCVASGGTLENWDIAWFRQAPGKEREGVAYFSSDGIRNYGDSMRGRFKISRDNAKNTAWLQMNRLSVEDTSTYYCAAKERVGRAWRNDGLYRYWGQGTQVTVSS
